This is an account of results in patent US20220242939A1 (BIOARCTIC, published 2022).

Where a chain is given by its changes, count along the chain named.

The chains are these.
B1: 17G4, hybridoma monoclonal antibody (unpurified supernatant) (antibody, mouse IgG1, V domains shown)
VH: EVQLVESGGGLVKPGGSLKLSCSASGFTFSRYAMSWVRQSPEKRLEWVAEINSGGSYSFYSDTVTGRFTISRDNAKNTLFLEMSSLRSEDTAIYYCARQLTGTDYYGTDYWGQGTSVTVSS
VL: DVLMTQTPLSLPVSHGDQASISCRSSQSLLYSNGNTYLEWYLQKPGQSPKLLIYKVSNRFSGVPDRFSGSGSGTDFTLKISRVEAEDLGVYYCFQGSHVPYTFGGGTKLEIK
B2: 7C7, hybridoma monoclonal antibody (unpurified supernatant) (antibody, mouse IgG2b, V domains shown)
VH: EVQLVESGGGLVKPGGSLRLSCAASGFTFSSFAMSWVRQSPERRLEWVAEISRGGGYAFYSDTVTGRFTISRDNARNTLFLEMGSLRSEDTAMYYCSRQLTGTDYYAMDYWGQGTSVTVSS
VL: B1 VL with M4L, P12F, H15L, L29I, L30V, S32T, H98Q, I111L
B3: 28F2, hybridoma monoclonal antibody (unpurified supernatant) (antibody, mouse IgG1, V domains shown)
VH: QIQLVQSGPDLKKPGETVKISCKASGYTFTNYAMHWMKQAPGKALKWMGWINTYTGEPTFADDFKGRFAFSLETSASTAYLQINSLKNEDMATYFCAREGYYDRSHYFDYWGQGTTLTVSS
VL: B1 VL with H15L, Q27L, L30V, Y31H, S32G, N33D, F94L, V99I, Y101F, G105S
B4: 23D5, hybridoma monoclonal antibody (unpurified supernatant) (antibody, mouse IgG1, V domains shown)
VH: B1 VH with T101S
VL: B1 VL

T2 sequence (P02649 other isoform, or with tags, fused parts or gaps limits assumed): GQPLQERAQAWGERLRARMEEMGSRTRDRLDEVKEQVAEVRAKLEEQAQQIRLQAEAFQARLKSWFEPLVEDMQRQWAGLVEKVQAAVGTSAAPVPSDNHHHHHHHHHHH

For one assay, the target named is T1, recombinant full-length ApoE4 (aa 1-299; SEQ ID NO:45; Abcam cat. no. ab50243) (human, UniProt P02649 19-317).
T1 construct: Bought protein; also called recombinant ApoE4 full-length protein
T1 sequence (P02649 19-317 C130R limits assumed): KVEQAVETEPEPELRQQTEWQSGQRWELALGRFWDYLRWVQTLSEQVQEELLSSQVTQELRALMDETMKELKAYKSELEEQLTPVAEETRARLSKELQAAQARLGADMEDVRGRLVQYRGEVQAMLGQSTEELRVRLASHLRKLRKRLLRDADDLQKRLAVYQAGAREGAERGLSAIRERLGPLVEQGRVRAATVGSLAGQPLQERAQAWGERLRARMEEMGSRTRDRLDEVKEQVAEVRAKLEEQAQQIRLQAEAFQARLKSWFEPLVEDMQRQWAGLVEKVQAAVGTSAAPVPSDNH
The assay is described as follows: direct ELISA, target coated at 1 ug/ml, supernatant in 3-fold dilutions from 1000 ng/ml, OD 450 nm. As for the experimental part: (§1) Selectivity evaluation by direct ELISA: The direct ELISA described below was used to evaluate the binding selectivity of generated monoclonal anti-ApoE antibodies with affinity for the N-terminal neo-epitope of C-terminal ApoE fragments starting at amino acid G200.
(§2) The screening was performed according to standard ELISA protocols. Briefly, 1 μg/ml solutions of N-terminal neo-epitope peptide (SEQ ID NO:50) conjugated to BSA, the recombinant C-terminal ApoE fragment G200-HIS (SEQ ID NO:48) and recombinant full-length ApoE4 (SEQ ID NO:45; Abcam; cat. no. ab50243) were prepared by dilution in PBS. 50 μl/well were added to an ELISA half-area 96 well microtiter plate. Then, the plate was sealed with adhesive sealer and incubated over night at 4° C. The plates were blocked with 150 μl/well of protein-free blocking solution (Pierce) for 1 h at room temperature with shake (600-900 rpm). The plates were washed four times with washing buffer containing 0.28 mM NaH₂PO₄, 2.5 mM Na₂HPO₄, 150 mM NaCl, 0.1% TWEEN®-20 and 0.0075% Kathon CG. Antibodies of interest were serially diluted 3-fold with a starting dilution at 1 μg/ml (mixed 1:1 with dilution buffer: PBS with 0.1% BSA and 0.05% TWEEN®-20) and incubated for 2 h at room temperature. The plates were washed four times as before. […] After another wash (as above), 50 μl/well of K-Blue® aqueous substrate (Neogen) were added, and the reaction was stopped after 5-15 min with 50 μl/well of 0.5 M […]. The optical density at 450 nm was read using an ELISA reader (Tecan). The optical density was plotted against the antibody concentration to generate concentration-response curves (FIG. 14).
With B1, the binding result was “no binding (tested: 1000 ng/ml)”.

For the molecule B2, the binding result is “no binding (tested: 1000 ng/ml)”.

For the molecule B3, the binding result was “no binding (tested: 1000 ng/ml)”.

As for B4, the binding result was “no binding (tested: 1000 ng/ml)”.

Another assay concerns the target T2, recombinant C-terminal ApoE fragment G200-HIS (ApoE-G200-H299-10xHIS) (human, UniProt P02649 218-317).
T2 construct: also called G200-HIS fragment
The assay is described as above. The method, then:
as §1, §2
As to B1, the “EC50 (read off the curve)” value is around 8 ng/mL.

As to B3, the “EC50 (read off the curve)” value was around 5 ng/mL.

Take B4: the “EC50 (read off the curve)” value was around 10 ng/mL.

A further assay deals with T3, full-length ApoE in human brain extract from Alzheimer's disease patients (human, UniProt P02649 19-317).
T3 construct: mature; Endogenous protein on Western blot or in solution (IP); also called ApoE full-length protein
T3 sequence (P02649 19-317): as the sequence (P02649 19-317 C130R limits assumed) above, with R112C counted along it
The assay is described as follows: Western blot of AD brain RIPA 2% SDS extract; hybridoma supernatant as primary antibody. From the text:
Selectivity evaluation and human target binding in Alzheimer's disease brain extracts by Western blot analysis: The Western blot analysis described below was used to evaluate selective binding of monoclonal antibodies with affinity for the N-terminal neo-epitope of ApoE fragments […], starting at G200, without binding to ApoE full-length protein, in human brain extracts from an Alzheimer's disease patient. Fresh frozen brain tissue from the Alzheimer's disease patient was homogenized in RIPA 2% SDS extraction buffer, followed by centrifugation at 16000×g for 1 h. The subsequent supernatant was subjected to standard protein concentration determination.
RIPA 2% SDS brain extract containing 80 μg total protein was mixed with 2×Laemmli sample buffer, boiled for 5 min at 95° C. and loaded onto SDS-PAGE gels (Bolt™ 12% Bis-Tris Plus 10 well, Thermo Fisher, cat. no. NW00120BOX). Gels were run for 30-40 min at 180 V, after which proteins were transferred from the gels to nitrocellulose membranes using the Trans-Blot® Turbo™ system (Bio-Rad). Membranes were blocked in Odyssey® blocking buffer for 1 h and incubated over night at room temperature with hybridoma supernatant diluted 1:1 in Odyssey® blocking buffer with 0.1% TWEEN®-20. Membranes were washed and incubated for 1 h at room temperature with the detection antibody anti-mouse-800CW (LI-COR, cat. no. 925-32210) diluted 1:25000 in Odyssey® blocking buffer with 0.1% TWEEN®-20. Membranes were washed and images acquired using Odyssey® FC (LI-COR).
As to B1, the binding result is given as “no binding (tested: supernatant diluted 1:1 (text))”.

On to B2, for which the binding result is listed as “no binding (tested: supernatant diluted 1:1 (text))”.

For B3, the binding result is “no binding (tested: supernatant diluted 1:1 (text))”.

Turning to B4, the binding result was “no binding (tested: supernatant diluted 1:1 (text))”.
